Measurements as given in US10703784B2, “Antigens and epitopes derived from Mycobacterium tuberculosis” (priority 2011, dated 2020).

B1: Rv0298: MTB protein, novel CD4 T cell antigen; Conserved hypotheticals (protein, listed as Mycobacterium tuberculosis)
chain: MTKEKISVTVDAAVLAAIDADARAAGLNRSEMIEQALRNEHLRVALRDYTAKTVPALDIDAYAQRVYQANRAAGS
B2: Rv3025c: MTB protein, novel CD4 T cell antigen; Intermediary metabolism and respiration, Island 2 (protein, listed as Mycobacterium tuberculosis)
chain: MAYLDHAATTPMHPAAIEAMAAVQRTIGNASSLHTSGRSARRRIEEARELIADKLGARPSEVIFTAGGTESDNLAVKGIYWARRDAEPHRRRIVTTEVEHHAVLDSVNWLVEHEGAHVTWLPTAADGSVSATALREALQSHDDVALVSVMWANNEVGTILPIAEMSVVAMEFGVPMHSDAIQAVGQLPLDFGASGLSAMSVAGHKFGGPPGVGALLLRRDVTCVPLMHGGGQERDIRSGTPDVASAVGMATAAQIAVDGLEENSARLRLLRDRLVEGVLAEIDDVCLNGADDPMRLAGNAHFTFRGCEGDALLMLLDANGIECSTGSACTAGVAQPSHVLIAMGVDAASARGSLRLSLGHTSVEADVDAALEVLPGAVARARRAALAAAGASR
B3: Rv0299: MTB protein, novel CD4 T cell antigen; Conserved hypotheticals (protein, listed as Mycobacterium tuberculosis)
chain: MIAPGDIAPRRDSEHELYVAVLSNALHRAADTGRVITCPFIPGRVPEDLLAMVVAVEQPNGTLLPELVQWLHVAALGAPLGNAGVAALREAASVVTALLC
B4: Rv0297: MTB protein, novel CD4 T cell antigen; PE/PPE (protein, listed as Mycobacterium tuberculosis)
chain: MSFVIAQPEMIAAAAGELASIRSAINAANAAAAAQTTGVMSAAADEVSTAVAALFSSHAQAYQAASAQAAAFHAQVVRTLTVDAGAYASAEAANAGPNMLAAVNAPAQALLGRPLIGNGANGAPGTGQAGGDGGLLFGNGGNGGSGAPGQAGGAGGAAGFFGNGGNGGDGGAGANGGAGGTAGWFFGFGGNGGAGGIGVAGINGGLGGAGGDGGNAGFFGNGGNGGMGGAGAAGVNAVNPGLATPVTPAANGGNGLNLVGVPGTAGGGADGANGSAIGQAGGAGGDGGNASTSGGIGIAQTGGAGGAGGAGGDGAPGGNGGNGGSVEHTGATGSSASGGNGATGGNGGVGAPGGAGGNGGHVSGGSVNTAGAGGKGGNGGTGGAGGPGGHGGSVLSGPVGDSGNGGAGGDGGAGVSATDIAGTGGRGGNGGHGGLWIGNGGDGGAGGVGGVGGAGAAGAIGGHGGDGGSVNTPIGGSEAGDGGKGGLGGDGGGRGIFGQFGAGGAGGAGGVGGAGGAGGTGGGGGNGGAIFNAGTPGAAGTGGDGGVGGTGAAGGKGGAGGSGGVNGATGADGAKGLDGATGGKGNNGNPG
B5: Rv3012c: MTB protein, novel CD4 T cell antigen; Information pathways (protein, listed as Mycobacterium tuberculosis)
chain: MSQISRDEVAHLARLARLALTETELDSFAGQLDAILTHVSQIQAVDVTGVQATDNPLKDVNVTRPDETVPCLTQRQVLDQAPDAVDGRFAVPQILGDEQ
B6: Rv0278c: MTB protein, novel CD4 T cell antigen; PE/PPE (protein, listed as Mycobacterium tuberculosis)
chain: MSFVIAAPEVIAAAATDLASLGSSISAANAAAAANTTALMAAGADEVSTAIAALFGAHGQAYQALSAQAQAFHAQFVQALTSGGGAYAAAEAAAVSPLLDPINEFFLANTGRPLIGNGANGAPGTGANGGDGGWLIGNGGAGGSGAAGVNGGAGGNGGAGGNGGAGGLIGNGGAGGAGGVASSGIGGSGGAGGNAMLFGAGGAGGAGGGVVALTGGAGGAGGAGGNAGLLFGAAGVGGAGGFTNGSALGGAGGAGGAGGLFATGGVGGSGGAGSSGGAGGAGGAGGLFGAGGTGGHGGFADSSFGGVGGAGGAGGLFGAGGEGGSGGHSLVAGGDGGAGGNAGMLALGAAGGAGGIGGDGGTLTAGGIGGAGGAGGNAGLLFGSGGSGGAGGFGFADGGQGGPGGNAGTVFGSGGAGGNGGVGQGFAGGIGGAGGTPGLIGNGGNGGNGGASAVTGGNGGIGGTGVLIGNGGNGGSGGIGAGKAGVGGVSGLLLGLDGFNAPASTSPLHTLQQNVLNVVNEPFQTLTGRPLIGNGANGTPGTGADGGAGGWLFGNGANGTPGTGAAGGAGGWLFGNGGNGGHGATNTAATATGGAGGAGGILFGTGGNGGTGGIATGAGGIGGAGGAGGVSLLIGSGGTGGNGGNSIGVAGIGGAGGRGGDAGLLFGAAGTGGHGAAGGVPAGVGGAGGNGGLFANGGAGGAGGFNAAGGNGGNGGLFGTGGTGGAGTNFGAGGNGGNGGLFGAGGTGGAAGSGGSGITTGGGGHGGNAGLLSLGASGGAGGSGGASSLAGGAGGTGGNGALLFGFRGAGGAGGHGGAALTSIQQGGAGGAGGNGGLLFGSAGAGGAGGSGANALGAGTGGTGGDGGHAGVFGNGGDGGCRRVWRRYRRQRWCRRQRRADRQRRQRRQRRQSRGHARCRRHRRAAARRERTQRLAIAGRPATTRGVEGISCSPQMMP
B7: Rv0279c: MTB protein, novel CD4 T cell antigen; PE/PPE (protein, listed as Mycobacterium tuberculosis)
chain: MSFVIAAPEVIAAAATDLASLESSIAAANAAAAANTTALLAAGADEVSTAVAALFGAHGQAYQALSAQAQAFHAQFVQALTSGGGAYAAAEAAATSPLLAPINEFFLANTGRPLIGNGTNGAPGTGANGGDGGWLIGNGGAGGSGAAGVNGGAGGNGGAGGLIGNGGAGGAGGRASTGTGGAGGAGGAAGMLFGAAGVGGPGGFAAAFGATGGAGGAGGNGGLFADGGVGGAGGATDAGTGGAGGSGGNGGLFGAGGTGGPGGFGIFGGGAGGDGGSGGLFGAGGTGGSGGTSIINVGGNGGAGGDAGMLSLGAAGGAGGSGGSNPDGGGGAGGIGGDGGTLFGSGGAGGVCGLGFDAGGAGGAGGKAGLLIGAGGAGGAGGGSFAGAGGTGGAGGAPGLVGNAGNGGNGGASANGAGAAGGAGGSGVLIGNGGNGGSGGTGAPAGTAGAGGLGGQLLGRDGFNAPASTPLHTLQQQILNAINEPTQALTGRPLIGNGANGTPGTGADGGAGGWLFGNGGNGGHGATGADGGDGGSGGAGGILSGIGGTGGSGGIGTTGQGGTGGTGGAALLIGSGGTGGSGGFGLDTGGAGGRGGDAGLFLGAAGTGGQAALSQNFIGAGGTAGAGGTGGLFANGGAGGAGGFGANGGTGGNGLLFGAGGTGGAGTLGADGGAGGHGGLFGAGGTGGAGGSSGGTFGGNGGSGGNAGLLALGASGGAGGSGGSALNVGGTGGVGGNGGSGGSLFGFGGAGGTGGSSGIGSSGGTGGDGGTAGVFGNGGDGGAGGFGADTGGNSSSVPNAVLIGNGGNGGNGGKAGGTPGAGGTSGLIIGENGLNGL
B8: Rv0442c: MTB protein, novel CD4 T cell antigen; PE/PPE (protein, listed as Mycobacterium tuberculosis)
chain: MTSPHFAWLPPEINSALMFAGPGSGPLIAAATAWGELAEKLLASIASLGSVTSELTSGAWLGPSAAAMMAVATQYLAWLSTAAAQAEQAAAQAMAIATAFEAALAATVQPAVVAANRGLMQLLAATNWFGQNAPALMDVEAAYEQMWALDVAAMAGYHFDASAAVAQLAPWQQVLRNLGIDIGKNGQINLGFGNTGSGNIGNNNIGNNNIGSGNTGTGNIGSGNTGSGNLGLGNLGDGNIGFGNTGSGNIGFGITGDHQMGFGGFNSGSGNIGFGNSGTGNVGLFNSGSGNIGIGNSGSLNSGIGTSGTINAGLGSAGSLNTSFWNAGMQNAALGSAAGSEAALVSSAGYATGGMSTAALSSGILASALGSTGGLQHGLANVLNSGLTNTPVAAPASAPVGGLDSGNPNPGSGSAAAGSGANPGLRSPGTSYPSFVNSGSNDSGLRNTAVREPSTPGSGIPKSNFYPSPDRESAYASPRIGQPVGSE

Test system: PBMCs from LTBI donors (IFN-γ production)
Assay type: cell-based, human
Settings: ex vivo IFN-γ ELISPOT; for Resp. freq.: fraction of 28 LTBI donors responding to epitopes of the antigen; for Total SFC: total spot-forming cells, LTBI donors

Row | Molecule | Resp. freq. [%] | Total SFC [SFC]
1 | B1 | 11 | 783
2 | B2 | 14 | 423
3 | B3 | 14 | 467
4 | B4 | 14 | 154
5 | B5 | 14 | 233
6 | B6 | 11 | 45
7 | B7 | 11 | 45
8 | B8 | 11 | 232
